Laboratory results published in article PMC11246235.

Target: CST (FLAG-Ctc1, Stn1, HA-Ten1) purified from HEK293T/17 cells (human) (UniProt Q2NKJ3)
Assay: co-IP

Polα/primase (endogenous), P09884 1-1462; Q14181 1-598; P49642 1-420; P49643 1-509
stoichiometry of Polα/primase to CST: 20%
